This note sets out measurements from US20230227537A1 (VIB VZW, published 2023).

“And” between values parts separate entries of the source, which are not always exact repeats. Identical values can stand only once. Like-named read-outs stand apart in the source and are kept apart here.

Experiment [1] concerns the target T1, BSA (Bos taurus, UniProt P02769).
T1 construct: coated on the ELISA plate; also called negative control antigen
The experiment in a line: ELISA on coated BSA, anti-VHH-HRP, OD450 [lower graph].

Experiment [2] has as its target SARS-CoV-2 RBD protein Avi-tag biotinylated (AcroBiosystems SPD-C82E9) (SARS-CoV-2, UniProt P0DTC2 330-518). The experiment in a line: competition AlphaLISA; competitor human ACE2-mFc. In general terms: In Alpha technology, singlet oxygen from a donor bead excites a nearby acceptor bead.
The target of experiment [3] is T2, Mouse IgG1 Fc fused SARS-CoV-2 RBD (Sino Biological) (SARS-CoV-2; mouse, UniProt P0DTC2 330-518). The experiment in a line: ELISA on coated SARS-CoV-2 RBD-muFc, anti-VHH-HRP, OD450 [lower graph]. Background: An ELISA detects its analyte on a solid surface through an enzyme-linked reagent.
In experiment [4] the target is T2, Mouse IgG1 Fc fused SARS-CoV-2 RBD ….
In experiment [5] the target is T1, BSA. As to the kind of experiment: ELISA on coated BSA, anti-VHH-HRP, OD450 [upper graph].
Experiment [6] deals with T3, WT SARS-CoV-2 RBD displayed on Saccharomyces cerevisiae (SARS-CoV-2, UniProt P0DTC2 331-518). The experiment in a line: flow cytometry, yeast cells displaying WT RBD. A general note: In flow cytometry, cells or beads pass a laser one at a time.
Experiment [7] deals with T3, WT SARS-CoV-2 RBD displayed on ….
The target of experiment [8] is T2, Mouse IgG1 Fc fused SARS-CoV-2 RBD …. The experiment in a line: ELISA on coated SARS-CoV-2 RBD-muFc, anti-VHH-HRP, OD450 [upper graph].
For experiment [9] the target is unchanged. The experiment in a line: BLI, RBD-mFc on AMC tips, global 1:1 fit.
Experiment [10] addresses SARS-CoV-2 spike, full length, on cells or on pseudotyped/authentic virus (SARS-CoV-2, UniProt P0DTC2 14-1273). The experiment in a line: cell-based or functional assay.

T1 sequence (P02769 25-607 limits assumed): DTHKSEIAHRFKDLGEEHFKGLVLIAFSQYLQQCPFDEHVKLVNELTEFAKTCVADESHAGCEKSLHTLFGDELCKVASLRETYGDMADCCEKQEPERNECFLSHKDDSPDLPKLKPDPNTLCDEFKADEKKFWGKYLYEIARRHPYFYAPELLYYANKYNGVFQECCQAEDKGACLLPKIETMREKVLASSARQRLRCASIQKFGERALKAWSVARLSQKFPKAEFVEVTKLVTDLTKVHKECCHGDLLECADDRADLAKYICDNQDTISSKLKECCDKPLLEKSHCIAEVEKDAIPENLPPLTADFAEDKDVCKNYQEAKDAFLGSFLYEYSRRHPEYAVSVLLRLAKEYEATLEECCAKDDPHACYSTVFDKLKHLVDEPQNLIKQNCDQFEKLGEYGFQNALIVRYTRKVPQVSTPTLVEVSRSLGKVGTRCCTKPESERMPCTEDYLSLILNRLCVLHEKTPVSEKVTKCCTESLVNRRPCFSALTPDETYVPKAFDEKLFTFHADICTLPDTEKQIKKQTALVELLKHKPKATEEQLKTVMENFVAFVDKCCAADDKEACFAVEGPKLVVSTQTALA

B1: VHH3.115 (VHH)
VHH: QVQLQESGGGLVQTGGSLRLSCAASGLTFSDIAMGWFRQAPGREREFVATISWSGGGTYYAEPVRGRFAISRDNAKNTVYLQMNSLKPEDTAVYYCAAAGAGTVVSEWDYDYDYWGQGTQVTVSS
Take B1: the binding result in experiment [1] is reported as “no binding (tested: about 20 µg/ml)”. In experiment [2], the % inhibition (as a rule, the change of the read-out against control, counted positive when it falls) was found to be 100% and the IC50 (as a rule, the concentration that gives 50% inhibition) is 1.08 nM. For the same molecule, the EC50 (read off the curve) – broadly, the midpoint of the concentration-response curve – in experiment [3] was around 0.006 µg/mL.

B2: VHH72 - hIgG1.Hinge-hIgG1.Fc (Fc fusion)
VHH-Fc chain: QVQLQESGGGLVQAGGSLRLSCAASGRTFSEYAMGWFRQAPGKEREFVATISWSGGSTYYTDSVKGRFTISRDNAKNTVYLQMNSLKPDDTAVYYCAAAGLGTVVSEWDYDYDYWGQGTQVTVSS
On to B2, for which, in experiment [4], the Kd (in general, the free concentration of one partner at which half of the binding sites on the other are occupied at equilibrium, for simple one-to-one binding) was 0.0874 nM and 0.0895 nM; the koff (as a rule, the first-order rate constant of dissociation) is 0.000252 s⁻¹ and 0.000288 s⁻¹; the kon (in general, the second-order rate constant of association) was 2.88e+06 M⁻¹ s⁻¹ and 3.22e+06 M⁻¹ s⁻¹.

B3: parental VHH72-hIgG1 Fc (P. pastoris supernatant) (Fc fusion)
chain: QVQLQESGGGLVQAGGSLRLSCAASGRTFSEYAMGWFRQAPGKEREFVATISWSGGSTYYTDSVKGRFTISRDNAKNTVYLQMNSLKPDDTAVYYCAAAGLGTVVSEWDYDYDYWGQGTQVTVSS
With B3, in experiment [4], the Kd was 0.0786 nM and 0.0765 nM; the koff is 0.000261 s⁻¹ and 0.000283 s⁻¹; the kon is 3.33e+06 M⁻¹ s⁻¹ and 3.7e+06 M⁻¹ s⁻¹.

B4: VHH72_h1(S56A) (VHH)
VHH: EVQLVESGGGLVQPGGSLRLSCAASGRTFSEYAMGWFRQAPGKEREFVATISWSGGATYYTDSVKGRFTISRDNAKNTVYLQMNSLRPEDTAVYYCAAAGLGTVVSEWDYDYDYWGQGTLVTVSS
For B4, the binding result in [5] is reported as “no binding (tested: about 20 µg/ml)”.

B5: VHH2.50 (VHH)
VHH: QVQLQESGGGLVQAGGSLRLSCAASGRTFSSIAMGWFRQAPGKEREFVATISWSGGSTYYADSVKGRFTISRDNAKNTVYLQMNSLKPEDTAVYYCAAAGLGTVVSEWDYDYDYWGQGTQVTVSS
With B5, in experiment [2], the “% inhibition” value stood at 79% and the IC50 turned out to be 34.2 nM.

B6: VHH3.149 (VHH)
VHH: QVQLQESGGGLVQAGGSLKLSCAASGRTFSSYALGWFRQAPGTEREFVSAINWFGAPTYYADSVKGRFTISRDNAKNTVYLQMDNLKPEDTAVYYCAADSKGWDPQDMDYWGKGTQVTVSS
As to B6, the binding result in experiment [1] is listed as “no binding (tested: about 20 µg/ml)”. In [2], the “% inhibition” value turned out to be 98% and the IC50 is 0.902 nM. Also, in experiment [3], the “EC50 (read off the curve)” value was around 0.006 µg/mL.

B7: VHH3.83 (VHH)
VHH: QVQLQESGGGLVQPGDSLRLSCVLSGGVFTSYAMGWFRQAPGKEREFLAAITFNSDATYYADSVKGRFTISRDNAKNTAYLQMNSLKPNDTAVYSCAAGGNHYNPQYYHDYDKYDHWGQGTQVTVSS
Take B7: the “concentration at which binding was just below saturation” value (shortened to “concentration”) in experiment [6] came out at 10 ng/mL. Also, the “EC50 (read off the curve)” value in [7] is around 0.003 µg/mL. In addition, in [2], the “% inhibition” value turned out to be 74% and the 50% inhibitory concentration (IC50) was 0.46 nM.

B8: VHH3.38 (VHH)
VHH: QVQLQESGGGLVQAGGSLRLSCAASGGTFNNYAMAWFRQAPGQERELVAAMFWSGLPKYYADSVKGRFTISTDDAKNTVYLQMNGLKPEDTAVYYCAADSRGWSDVGGMDYWGKGTQVTVSS
Consider B8, for which the “concentration” value in experiment [6] worked out at 10 ng/mL. Further, the binding result in experiment [5] is given as “no binding (tested: about 20 µg/ml)”. Moreover, the “EC50 (read off the curve)” value in experiment [7] is around 0.001 µg/mL. Further, in experiment [8], the “EC50 (read off the curve)” value was around 0.04 µg/mL. Also, in experiment [2], the “% inhibition” value came to 99% and the IC50 was 2.01 nM.

B9: D72-13: VHH72-h1_(G4S)3-VHH72-h1_GS_hIgG1hinge-hIgG1Fc (Fc fusion)
chain: EVQLVESGGGLVQPGGSLRLSCAASGRTFSEYAMGWFRQAPGKEREFVATISWSGGSTYYTDSVKGRFTISRDNAKNTVYLQMNSLRPEDTAVYYCAAAGLGTVVSEWDYDYDYWGQGTLVTVSSGGGGSGGGGSGGGGSEVQLVESGGGLVQPGGSLRLSCAASGRTFSEYAMGWFRQAPGKEREFVATISWSGGSTYYTDSVKGRFTISRDNAKNTVYLQMNSLRPEDTAVYYCAAAGLGTVVSEWDYDYDYWGQGTLVTVSSGS
notes: ExpiCHO; tetravalent
Take B9: in experiment [9], the Kd was below 0.001 nM, the koff is below 1e-07 s⁻¹ and the kon came out at 2.65e+06 M⁻¹ s⁻¹. Also, the “PRNT50, authentic SARS-CoV-2” value in experiment [10] was found to be 0.1 µg/mL.

B10: VHH3.29 (VHH)
VHH: QVQLQESGGGLVQAGGSLRLSCVASGRTFSSGGMGWFRQAPGQEREFVAGIGWAGLSSYYLDSVKGRFTISLDNAKNTVYLQMNMLKPEDTGVYYCAADDHGWSAAGMDYLGQGTQVTVSS
In the case of B10, the binding result in experiment [5] is reported as “no binding (tested: about 20 µg/ml)”. Besides, the “EC50 (read off the curve)” value in experiment [8] is around 0.03 µg/mL. For the same molecule, in experiment [2], the “% inhibition” value came to 97% and the IC50 came out at 1 nM.

B11: VHH3.35 (VHH)
VHH: QVQLQESGGGLVQAGGSLTLSCEVSGRTNDNYGVGWFRQVPGAERELVAAIRWSSISRYYKDSVKGRFTISRDNAKNTVYLQMDMLKAEDTAVYYCAADPAGWSEFGMEYWGKGTQVTVSS
As to B11, in [5], the binding result is recorded as “no binding (tested: about 20 µg/ml)”. Besides, the “EC50 (read off the curve)” value in experiment [8] is around 0.04 µg/mL. In experiment [2], the “% inhibition” value stood at 100% and the IC50 worked out at 1.06 nM.

B12: VHH3.55 (VHH)
VHH: QVQLQESGGGLVQAGGSLRLSCEVSGRTNDNYGVGWFRQVPGAERELVAAIRWSSISRYYKDSVKGRFTISRDNAKNTVYLQMDMLKPEDTAAYYCAADPAGWSEFGMEYWGKGTQVTVSS
As to B12, the “concentration” value in experiment [6] worked out at 10 ng/mL. For the same molecule, the “EC50 (read off the curve)” value in experiment [7] was around 0.002 µg/mL; in experiment [3] it was around 0.01 µg/mL. In experiment [1], the binding result is reported as “no binding (tested: about 20 µg/ml)”. Moreover, the “% inhibition” value in [2] stood at 100%. In [2], this molecule returned an IC50 of 0.817 nM.

B13: VHH3.47 (VHH)
VHH: QVQLQESGGGLVQAGDSLRLSCAASGHNFSTYAMAWFRQAPGTERELVAAISENDVMRYYADSVKGRFTISRDNAKNMAYLQMNSLKVEDTAVYLCAADPKGWSEWDMDYWGKGTQVTVSS
As to B13, in experiment [2], the “% inhibition” value is 100% and the IC50 stood at 0.729 nM. Besides, the 50% effective concentration (EC50 (read off the curve)) in [3] was around 0.03 µg/mL.

B14: VHH3.36 (VHH)
VHH: QVQLQESGGGLVQAGDSLRLSCVVSGGTFSSYAMGWFRQAPGKERELVAAINWGGISVYYADSVKGRFTISRDNAENTVYLQMNSLKPEDTAVYYCAADPKGWSEWDMEYWGKGTQVTVSS
Consider B14, for which the binding result in [5] was “no binding (tested: about 20 µg/ml)”. Also, the “EC50 (read off the curve)” value in [8] is around 0.05 µg/mL. In experiment [2], the “% inhibition” value was 100% and the IC50 was 0.562 nM.

B15: VHH3.77 (VHH)
VHH: QVQLQESGGGLVQAGGSLRLSCVSSGRAFGNGAVGWFRQGPGRPREFVATVSWNGGGTYFAESVRGRFTISRDNAKNTVYLQMNNLKPEDTAVYYCALAGEGTVVSEWDYDYEYWGQGTQVTVSS
In the case of B15, the binding result in [1] is reported as “no binding (tested: about 20 µg/ml)”. Also, in experiment [2], the “% inhibition” value came to 97% and the IC50 stood at 0.723 nM. In addition, in experiment [3], the “EC50 (read off the curve)” value was around 0.03 µg/mL.

B16: VHH3BE4 (VHH)
VHH: QVQLQESGGGLVQAGGSLRLSCVASGRAFGNGAVGWFRQAPGREREFVATVSWNGGGTYYAESVRGRFTISRDNAKSTVYLQMNSLKPEDTAVYYCASAGEGTVVSEWDYDYDYWGQGTQVTVSS
Turning to B16, in experiment [2], the “% inhibition” value stood at 100% and the IC50 was determined as 0.634 nM.

B17: VHH3.17 (VHH)
VHH: QVQLQESGGGLVEAGGSLTLSCAASGRAFGDGAVGWFRQGPGRPREFVATVSWNGGGTYFAESVRGRFTISRDNAKNTVYLQMNNLKPEDTAVYYCALAGEGTVVSEWDYDYEYWGQGTQVTVSS
As to B17, the binding result in experiment [5] was “no binding (tested: about 20 µg/ml)”. The “EC50 (read off the curve)” value in [8] is around 0.05 µg/mL. Besides, in experiment [2], the “% inhibition” value came to 99% and the IC50 is 1.03 nM.

B18: VHH3.144 (VHH)
VHH: QVQLQESGGGLVQAGGSLRLSCVASGRAFGNGAVGWFRQAPGREREFVATVSWNGGGTYYAESVRGRFTISRDNAKSTVYLQMNSLKPEDTAVYYCASAGEGTVVSEWDYDYDYWGQGTQVTVSS
Take B18: the binding result in experiment [1] was “no binding (tested: about 20 µg/ml)”. Also, in experiment [2], the “% inhibition” value came out at 100% and the IC50 worked out at 1.12 nM.
